In patent US6468740:
surface (amide) = not defined here

What follows are binders tested against monoclonal antibody D32.39 (assay: not given).

Binder	Normalized Intensity (%)
Ac-RQFKVVT-{surface (amide)} (reading uncertain; also: C-terminus amide-linked to surface) [RQFKVVT, surface-immobilized peptide]	99%
Ac-LRRQFK-{surface (amide)} (reading uncertain; also: C-terminus amide-linked to surface) [LRRQFK, surface-immobilized peptide]	12%
Ac-FLRRQFK-{surface (amide)} (reading uncertain; also: C-terminus amide-linked to surface) [FLRRQFK, surface-immobilized peptide]	10%
Ac-KVVT-{surface (amide)} (reading uncertain; also: C-terminus amide-linked to surface) [KVVT, surface-immobilized peptide]	11%
Ac-RRQFK-{surface (amide)} (reading uncertain; also: C-terminus amide-linked to surface) [RRQFK, surface-immobilized peptide]	12%
Ac-FLRRQF-{surface (amide)} (reading uncertain; also: C-terminus amide-linked to surface) [FLRRQF, surface-immobilized peptide]	8%
Ac-RQFKV-{surface (amide)} (reading uncertain; also: C-terminus amide-linked to surface) [RQFKV, surface-immobilized peptide]	16%
Ac-LRRQ-{surface (amide)} (reading uncertain; also: C-terminus amide-linked to surface) [LRRQ, surface-immobilized peptide]	10%
Ac-LRRQFKVVT-{surface (amide)} (reading uncertain; also: C-terminus amide-linked to surface)	87%
Ac-RQFK-{surface (amide)} (reading uncertain; also: C-terminus amide-linked to surface) [RQFK, surface-immobilized peptide]	13%
Ac-RRQFKV-{surface (amide)} (reading uncertain; also: C-terminus amide-linked to surface) [RRQFKV, surface-immobilized peptide]	16%
Ac-RRQFKVVT-{surface (amide)} (reading uncertain; also: C-terminus amide-linked to surface) [RRQFKVVT, surface-immobilized peptide]	99%
Ac-FLRRQFKV-{surface (amide)} (reading uncertain; also: C-terminus amide-linked to surface) [FLRRQFKV, surface-immobilized peptide]	14%
Ac-FLRRQ-{surface (amide)} (reading uncertain) [FLRRQ, surface-immobilized peptide]	8%
Ac-LRRQFKV-{surface (amide)} (reading uncertain; also: C-terminus amide-linked to surface) [LRRQFKV, surface-immobilized peptide]	16%
Ac-RRQF-{surface (amide)} (reading uncertain; also: C-terminus amide-linked to surface) [RRQF, surface-immobilized peptide]	11%
Ac-QFKVVT-{surface (amide)} (reading uncertain; also: C-terminus amide-linked to surface) [QFKVVT, surface-immobilized peptide]	28%
Ac-LRRQF-{surface (amide)} (reading uncertain; also: C-terminus amide-linked to surface) [LRRQF, surface-immobilized peptide]	10%

Results, then the binder that gave them:

Normalized Intensity (%)	Binder
98%	Ac-FLRRQFKVVT-{surface (amide)} (reading uncertain; also: C-terminus amide-linked to surface)
37%	Ac-FLRRQFKVV-{surface (amide)} (reading uncertain; also: C-terminus amide-linked to surface)
11%	Ac-QFKV-{surface (amide)} (reading uncertain; also: C-terminus amide-linked to surface) [QFKV, surface-immobilized peptide]
17%	Ac-QFKVV-{surface (amide)} (reading uncertain; also: C-terminus amide-linked to surface) [QFKVV, surface-immobilized peptide]
10%	Ac-FKVV-{surface (amide)} (reading uncertain) [FKVV, surface-immobilized peptide]
6%	Ac-FLRR-{surface (amide)} (reading uncertain) [FLRR, surface-immobilized peptide]
44%	Ac-LRRQFKVV-{surface (amide)} (reading uncertain; also: C-terminus amide-linked to surface) [LRRQFKVV, surface-immobilized peptide]
54%	Ac-RQFKVV-{surface (amide)} (reading uncertain; also: C-terminus amide-linked to surface) [RQFKVV, surface-immobilized peptide]
13%	Ac-FKVVT-{surface (amide)} (reading uncertain) [FKVVT, surface-immobilized peptide]
58%	Ac-RRQFKVV-{surface (amide)} (reading uncertain; also: C-terminus amide-linked to surface) [RRQFKVV, surface-immobilized peptide]

These binders were tested against monoclonal antibody D32.39 (assay: solution competition of free peptide against radiolabeled dynorphin B peptide for D32.39).

IC50	Binder
77000 nM	Ac-FKVVT-OH [Ac-FKVVT-OH, free peptide]
3200 nM	Ac-QFKVVT-OH [Ac-QFKVVT-OH, free peptide]
3.9 nM	Ac-RRQFKVVT-OH [Ac-RRQFKVVT-OH, free peptide]
11 nM	Ac-RQFKVVT-OH [Ac-RQFKVVT-OH, free peptide]
7.3 nM	Ac-RQFKVVT-NH2 [Ac-RQFKVVT-NH2, free peptide]

Target: monoclonal antibody D32.39
Assay: not given
Remark: another data set of the same source

relative signal	Binder
100%	Ac-FLRRQFKVVT-{surface (amide)} (reading uncertain; also: C-terminus amide-linked to surface)
